Where “and” joins values, the source holds several entries; their conditions need not be identical. Equal values may be shown once.
Key:
[1] = tested on: small intestinal organoids; test: RANKL-mediated in-vitro differentiation of M cells in intestinal organoids (scRNA-seq); type: cell-based, mouse; conditions: 5,434 cells from organoids treated with RANKL for 0, 3 and 6 days
Description: Organoid cultures. Following crypt isolation from the whole small intestine^142, the single cell suspension was resuspended in Matrigel® (BD Bioscience) with 1 μM Jagged-1 peptide (Ana-Spec). Roughly 300 crypts embedded in 25 μl of Matrigel® were seeded onto each well of a 24-well plate. Once solidified, the Matrigel® was incubated in 600 μl culture medium (Advanced DMEM/F12, Invitrogen) with streptomycin/penicillin and glutamax and supplemented with EGF (100 ng/mL, Peprotech®), R-Spondin-1 (600 ng/mL, R&D), Noggin (100 ng/mL, Peprotech®), Y-276432 dihydrochloride monohydrate (10 μM, Tocris™)), N-acetyl-1-cysteine (1 μM, Sigma-Aldrich), N2 (1×, Life Technologies), B27 (1×, Life Technologies) and Wnt3A (25 ng/mL, R&D Systems). Fresh media was replaced on day 3, and organoids were passaged by dissociation with TrypLE and resuspended in new Matrigel® on day 6 with a 1:3 split ratio. For selected experiments, organoids were additionally treated with RANKL (100 ng/mL, Biolegends). For T helper cell co-culture experiments, organoids were cultured with Th1, Th2, Th17 or iTregs. Roughly 10,000 T helper cells were added to each well of 500 organoids and were supplemented either to the medium or suspended in the Matrigel®. Treated organoids were dissociated and subjected to scRNA-seq using both methods. […]

[2] = tested on: cultured epithelia from proximal or distal trachea; test: rIL-13-induced mucous metaplasia in air-liquid interface cultured tracheal epithelia; type: cell-based, mouse; conditions: proximal vs distal tracheal epithelium ALI cultures, rIL-13 vs control, 72 hours
Description: Transwell cultures. Cells were cultured and expanded in complete SAGM (small airway epithelial cell growth medium; Lonza, CC-3118) containing TGF-β/BMP4/WNT antagonist cocktails and 5 μM Rock inhibitor Y-27632 (Selleckbio, S1049). To initiate air-liquid interface (ALI) cultures, airway basal stem cells were dissociated from mouse tracheas and seeded onto transwell membranes. After reaching confluence, media was removed from the upper chamber. Mucociliary differentiation was performed with PneumaCult-ALI Medium (StemCell, 05001). Differentiation of airway basal stem cells on an air-liquid interface was followed by directly visualizing beating cilia in real time after 10-14 days. […]
Statistical analysis of proximodistal mucous metaplasia. For the analysis in FIG. 38H,I, the extent of goblet cell hyperplasia was assessed using counts of Muc5ac^+ goblet cells, normalized to counts of GFP^+ ciliated cells. To quantify differences in the count values between the samples in different conditions (n=6, Foxj 1-GFP mice), Applicants fit a negative binomial regression using the ‘glm.nb’ function from the ‘MASS’ package in R. Pairwise comparisons between means for each condition were computed using post hoc tests and p-values were adjusted for multiple comparisons using Tukey's HSD, implemented using the function ‘pairs’ from the ‘emeans’ package in R.

B1: RANKL: cytokine added to small intestinal organoids as ex vivo model of M cell differentiation (protein, UniProt O35235 139-316, looked up)
Tumor necrosis factor ligand …: FSGAPAMMEGSWLDVAQRGKPEAQPFAHLTINAASIPSGSHKVTLSSWYHDRGWAKISNMTLSNGKLRVNQDGFYYLYANICFRHHETSGSVPTDYLQLMVYVVKTSIKIPSSHNLMKGGSTKNWSGNSEFHFYSINVGGFFKLRAGEEISIQVSNPSLLDPDQDATYFGAFKVQDID
For B1, the “differentiated M cells identified by unsupervised clustering” value [1] was 384 cells and 378 cells.

B2: rIL-13: recombinant murine IL-13 used to induce mucous metaplasia in cultured airway epithelium (protein, UniProt P20109 19-131, looked up)
Interleukin-13: APGPVPRSVSLPLTLKELIEELSNITQDQTPLCNGSMVWSVDLAAGGFCVALDSLTNISNCNAIYRTQRILHGLCNRKAPTTVSSLPDTKIEVAHFITKLLSYTKQLFRHGPF
With B2 the “induction of goblet cell differentiation (Muc5ac+ goblet cells normalized to GFP+ ciliated cells)” value [2] was “much higher induction of goblet cell differentiation in the distal epithelium”.

Reference: patent US12590288B2, “Method of treating an inflammatory disease by administering an agent which binds a surface receptor on a tuft cell that induces an ILC class 2 inflammatory response” (The Broad Institute, Inc., priority 2017, dated 2026)
